# Data: patent US20230287489
# T1: human placental RNase inhibitor (NEB, Cat #M0307S), P13489
# T1 chain: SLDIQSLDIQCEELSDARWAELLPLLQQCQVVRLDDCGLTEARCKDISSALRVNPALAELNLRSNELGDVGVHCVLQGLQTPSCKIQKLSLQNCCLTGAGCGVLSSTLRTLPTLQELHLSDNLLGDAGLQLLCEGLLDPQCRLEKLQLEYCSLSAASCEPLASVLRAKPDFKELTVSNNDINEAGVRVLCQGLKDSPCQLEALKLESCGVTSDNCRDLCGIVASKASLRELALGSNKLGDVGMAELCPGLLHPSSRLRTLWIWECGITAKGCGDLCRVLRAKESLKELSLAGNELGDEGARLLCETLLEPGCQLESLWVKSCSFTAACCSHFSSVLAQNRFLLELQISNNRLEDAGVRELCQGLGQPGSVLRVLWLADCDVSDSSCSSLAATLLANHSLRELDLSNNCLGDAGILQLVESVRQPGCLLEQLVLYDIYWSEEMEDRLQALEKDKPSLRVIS
# B1: recombinant wild-type human RNase4 (hRNase 4), periplasmically expressed as an MBP fusion protein (protein)
# chain: QDGMYQRFLRQHVHPEETGGSDRYCNLMMQRRKMTLYHCKRFNTFIHEDIWNIRSICSTTNIQCKNGKMNCHEGVVKVTDCRDTGSSRAPNCRYRAIASTRRVVIACEGNPQVPVHFDG
# Biological target: T1, human placental RNase inhibitor (NEB, …)
protein,measurement,value
B1,"cleavage of a target RNA oligonucleotide (SEQ ID NO: 23) by hRNase 4, LC-MS/MS",cleavage of the target oligonucleotide was inhibited following preincubation of hRNase 4 with human placental RNase inhibitor
